For experiment [1], the target named is human IL-11 (Interleukin 11) (human) (UniProt P20809). As to the kind of experiment: cell-based or functional assay.
The target of experiment [2] is murine IL-11 (mouse) (UniProt P47873). Briefly: cell-based or functional assay.
Sequence of UniProt P47873 (P47873 22-199 limits assumed): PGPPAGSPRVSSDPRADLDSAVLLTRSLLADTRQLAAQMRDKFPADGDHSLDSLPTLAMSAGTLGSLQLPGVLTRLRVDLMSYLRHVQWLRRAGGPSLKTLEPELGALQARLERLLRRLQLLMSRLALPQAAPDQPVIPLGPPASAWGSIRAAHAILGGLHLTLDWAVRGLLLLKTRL

Sequence of UniProt P20809 (P20809 22-199 limits assumed): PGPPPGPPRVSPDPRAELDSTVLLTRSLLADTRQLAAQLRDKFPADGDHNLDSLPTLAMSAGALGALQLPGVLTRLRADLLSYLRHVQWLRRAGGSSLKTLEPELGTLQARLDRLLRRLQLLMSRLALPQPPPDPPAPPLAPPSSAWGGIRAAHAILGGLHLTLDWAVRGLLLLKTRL

Turning to “neutralising anti-human IL-11 monoclonal antibody (Monoclonal Mouse IgG2A; Clone #22626; Catalog No. MAB218; R&D Systems)”, in experiment [1], the percentage of activated (αSMA-positive) fibroblasts, TGFβ1-stimulated human atrial fibroblasts stood at 28.3%; the percentage of activated fibroblasts normalised to non-stimulated cultures (=1) (fold of non-stimulated cultures) turned out to be 0.99; the percentage of activated fibroblasts, TGFβ1-stimulated human atrial fibroblasts, relative to unstimulated cultures is 0.89 fold. Besides, in experiment [2], the percentage of activated fibroblasts normalised to non-stimulated cultures (=1) (fold of non-stimulated cultures) worked out at 1.24; the percentage of activated fibroblasts, TGFβ1-stimulated mouse atrial fibroblasts, relative to unstimulated cultures was 1.44 fold; the percentage of activated fibroblasts, TGFβ1-stimulated mouse dermal fibroblasts turned out to be 39.4%.

For the origin of these results see patent US20190002553A1.
